This note sets out measurements from patent publication US20230203111A1 (published 2023).

Changes are numbered by the printed parent chain.

This test concerns the target T1, TFR1 (human source) (human, UniProt P02786 89-760, limits assumed).
T1 construct: Soluble reagent added at 2 µg/mL to ferritin-coated ELISA plates; also called Tfr1 receptor; Tfr-1 receptor
As to the kind of experiment: ELISA, ferritin coated, human TFR1 2 µg/mL. (ELISA stands for enzyme-linked immunosorbent assay.)

T1 sequence (P02786 89-760 limits assumed): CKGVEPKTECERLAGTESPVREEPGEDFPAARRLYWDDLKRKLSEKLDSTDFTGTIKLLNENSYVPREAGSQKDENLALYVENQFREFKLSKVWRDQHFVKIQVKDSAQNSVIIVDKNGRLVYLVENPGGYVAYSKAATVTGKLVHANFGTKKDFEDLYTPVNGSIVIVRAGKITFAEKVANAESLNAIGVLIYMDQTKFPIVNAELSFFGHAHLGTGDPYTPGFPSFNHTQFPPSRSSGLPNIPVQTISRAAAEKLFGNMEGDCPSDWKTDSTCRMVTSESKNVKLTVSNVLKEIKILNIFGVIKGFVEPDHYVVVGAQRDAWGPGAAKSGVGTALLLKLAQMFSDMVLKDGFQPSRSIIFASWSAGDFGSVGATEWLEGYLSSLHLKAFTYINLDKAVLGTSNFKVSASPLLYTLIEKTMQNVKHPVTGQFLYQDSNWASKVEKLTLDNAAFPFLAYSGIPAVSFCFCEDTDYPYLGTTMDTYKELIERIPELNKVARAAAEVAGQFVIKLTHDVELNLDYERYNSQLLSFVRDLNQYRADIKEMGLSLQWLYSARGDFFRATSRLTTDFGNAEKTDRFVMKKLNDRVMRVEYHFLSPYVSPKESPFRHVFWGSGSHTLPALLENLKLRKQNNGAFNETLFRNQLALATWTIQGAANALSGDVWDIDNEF

B1: HFn-Mt-3 (ligand)
chain: TTASTSQVRQNYHQDSEAAINRQINLELYASYVYLSMSYYFDRDDVALKNFAKYFLHQSHEEREHAEKLMKLQNQRGGRICLQDIKKPDSDDWESGLNAMESALHLEKNVNQSLLELHKLATDKNDPHLSDFIETHYLNEQVKAIKELGDHVTNLRKMGAPESGLAEYLFDKHTLGDSDNES
notes: cage protein; also called HFn-Mut-3
Regarding B1, the binding result is reported as “no binding”.

B2: HFn-Mt-5 (ligand)
chain: B1 chain with C81F, Q83C
notes: cage protein; also called HFn-Mut-5
As for B2, the binding result is “no binding”.
